Here are results for seven molecules from patent US7041458B2, “Methods and reagents for determining protein S” (priority 1996, dated 2006).

The target of test [1] is T1, C4BP (Homo sapiens, UniProt P20851).
T1 sequence (P20851 18-252): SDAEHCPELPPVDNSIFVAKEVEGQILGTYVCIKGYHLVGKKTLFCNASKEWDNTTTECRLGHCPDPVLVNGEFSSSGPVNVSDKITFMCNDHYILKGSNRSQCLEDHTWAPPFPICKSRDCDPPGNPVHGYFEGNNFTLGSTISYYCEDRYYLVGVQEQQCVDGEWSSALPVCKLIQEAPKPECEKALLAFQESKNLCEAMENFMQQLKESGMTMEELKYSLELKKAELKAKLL
T1 sequence (P04003 49-597 partner): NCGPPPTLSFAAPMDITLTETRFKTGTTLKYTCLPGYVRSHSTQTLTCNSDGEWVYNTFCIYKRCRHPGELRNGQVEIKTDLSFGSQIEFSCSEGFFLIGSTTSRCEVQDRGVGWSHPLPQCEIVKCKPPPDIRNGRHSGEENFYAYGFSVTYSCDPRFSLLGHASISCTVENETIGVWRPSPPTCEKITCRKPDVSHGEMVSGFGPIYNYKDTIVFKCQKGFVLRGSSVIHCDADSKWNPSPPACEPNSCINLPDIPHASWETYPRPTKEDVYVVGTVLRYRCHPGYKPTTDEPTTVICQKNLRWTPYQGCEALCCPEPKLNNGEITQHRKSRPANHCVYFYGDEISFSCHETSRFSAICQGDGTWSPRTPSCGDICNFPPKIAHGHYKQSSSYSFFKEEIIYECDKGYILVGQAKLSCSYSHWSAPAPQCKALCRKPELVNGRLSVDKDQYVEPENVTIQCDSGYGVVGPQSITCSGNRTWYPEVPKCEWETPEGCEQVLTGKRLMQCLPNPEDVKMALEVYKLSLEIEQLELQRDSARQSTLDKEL
Conditions: Ca2+-free; read-out: dissociation constant KD of the complex with C4BP; cited from earlier work.

Test [2] concerns the target T2, protein S-C4BP interaction (Homo sapiens, UniProt P20851).
T2 construct: C4BPβ was first isolated from human plasma in the form of the protein S-C4BP complex; from tissue; host or cells: human plasma
T2 sequence (P20851 18-252): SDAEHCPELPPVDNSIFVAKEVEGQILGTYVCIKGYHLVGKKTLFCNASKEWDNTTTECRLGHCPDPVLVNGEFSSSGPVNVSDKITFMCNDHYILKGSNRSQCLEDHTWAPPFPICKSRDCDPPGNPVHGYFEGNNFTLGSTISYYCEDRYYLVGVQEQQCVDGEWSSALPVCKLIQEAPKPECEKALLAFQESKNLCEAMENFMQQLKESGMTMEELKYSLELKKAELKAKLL
T2 sequence (P04003 49-597 partner): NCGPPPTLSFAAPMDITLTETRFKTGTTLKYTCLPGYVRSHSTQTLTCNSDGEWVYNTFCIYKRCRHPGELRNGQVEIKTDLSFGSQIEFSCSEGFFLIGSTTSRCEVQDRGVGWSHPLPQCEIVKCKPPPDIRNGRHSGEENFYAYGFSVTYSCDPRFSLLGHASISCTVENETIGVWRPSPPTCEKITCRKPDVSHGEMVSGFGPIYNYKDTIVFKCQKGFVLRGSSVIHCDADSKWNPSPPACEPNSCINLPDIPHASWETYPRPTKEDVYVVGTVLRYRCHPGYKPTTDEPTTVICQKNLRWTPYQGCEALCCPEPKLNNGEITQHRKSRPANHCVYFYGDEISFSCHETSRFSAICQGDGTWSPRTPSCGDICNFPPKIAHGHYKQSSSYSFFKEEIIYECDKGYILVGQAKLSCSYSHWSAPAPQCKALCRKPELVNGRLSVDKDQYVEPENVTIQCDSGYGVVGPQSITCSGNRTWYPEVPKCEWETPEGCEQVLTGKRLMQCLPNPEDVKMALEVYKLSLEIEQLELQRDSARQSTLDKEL
Nature of the test: Peptide inhibition of the protein S-C4BP interaction by surface plasmon resonance (BIAcore, immobilized C4BP). Format: binding. Conditions: 50 nM protein S, peptide up to 100 μM (2000-fold excess). The procedure: E. Peptide Inhibition of the Protein S-C4BP Interaction According to Surface Plasmon Resonance Studies.
The surface plasmon resonance studies were performed using a BIAcore™ apparatus from Pharmacia Biosensor AB. Immobilization of C4BP to the dextran coated gold surface of a sensorchip was performed at a flow rate of 5 μl/min, using HC as flow buffer. Equal volumes of 0.1 M NHS and 0.1 M EDC were first mixed, whereafter 30 μl of the mixture was flown over the sensorchip surface to activate the carboxymethylated dextran. C4BP was then injected over the sensorchip (40 μl of a 60 μg/ml solution in 10 mM NaOAc at pH 4.75), whereafter unreacted NHS-ester groups were blocked by 15 μl 1M ethanolamine (pH 8.5). The system was regenerated by addition of 15 μl 0.1 M HCl, which removes all non-covalently bound molecules. The immobilized amount of C4BP was 8000 RU. Protein S association was monitored with 50 nM human protein S in HC buffer in a continuous flow of 1 μl per minute during 45 minutes. The ability of each peptide to inhibit the protein S binding was studied by following the association to C4BP for mixtures of protein S and peptide. In BIAcore™, the total amount of bound material is measured, and the peptides are 25-fold smaller than protein S, inhibition of protein S-binding by peptide binding will drastically lower the observed response during the association phase. The percent protein S bound, X, was calculated as X=(S−0.04Smax)/0.96Smax where S is the measured response and Smax is the response obtained in the absence of peptide.
As disclosed in Section E, the ability of the synthetic peptides to inhibit the binding of human protein S to C4BP was also studied using surface plasmon resonance on a BIA-core™ system.
(§1) In these figures, peptide inhibition of the protein S-C4BP interaction is shown as the amount of protein S bound (relative to the amount bound in the absence of peptide) versus concentration of the nine peptides listed in Table 1: (o) SL1, (♦) SL2, (□) SL3, (+) SL4, (⋄) SL5, (●) SL6, (▾) SL7, (Δ) BD4 & (∇) BD6. In FIG. 5A, the result from an equilibrium binding assay using immobilized C4BP in microtiter wells and radiolabelled human protein S is shown. […] In FIG. 5B, the result from surface plasmon resonance assay on a BIAcore™ sensorchip is shown. The amount of protein S bound, X, was calculated from the observed signal intensity, S, compared to the maximum signal intensity in the absence of peptide Smax, as X=(S−0.04)/0.96 Smax.
On the technique in general: Surface plasmon resonance follows binding to a sensor surface in real time, without labels.

The target of test [3] is T3, C4b-binding protein (C4BP), species containing the protein S binding β-chain, purified from human plasma (human, UniProt P04003 49-597; P20851 18-252).
T3 construct: mature; Isolated from human plasma as the protein S-C4BP complex, dissociated in 3 M guanidine-HCl and purified further; predominantly C4BPβ, and a minor proportion lacking the β-chain may be present; Immobilised on microtiter wells or on a CM5 sensorchip; also called C4BPβ
T3 sequence (looked up) 1: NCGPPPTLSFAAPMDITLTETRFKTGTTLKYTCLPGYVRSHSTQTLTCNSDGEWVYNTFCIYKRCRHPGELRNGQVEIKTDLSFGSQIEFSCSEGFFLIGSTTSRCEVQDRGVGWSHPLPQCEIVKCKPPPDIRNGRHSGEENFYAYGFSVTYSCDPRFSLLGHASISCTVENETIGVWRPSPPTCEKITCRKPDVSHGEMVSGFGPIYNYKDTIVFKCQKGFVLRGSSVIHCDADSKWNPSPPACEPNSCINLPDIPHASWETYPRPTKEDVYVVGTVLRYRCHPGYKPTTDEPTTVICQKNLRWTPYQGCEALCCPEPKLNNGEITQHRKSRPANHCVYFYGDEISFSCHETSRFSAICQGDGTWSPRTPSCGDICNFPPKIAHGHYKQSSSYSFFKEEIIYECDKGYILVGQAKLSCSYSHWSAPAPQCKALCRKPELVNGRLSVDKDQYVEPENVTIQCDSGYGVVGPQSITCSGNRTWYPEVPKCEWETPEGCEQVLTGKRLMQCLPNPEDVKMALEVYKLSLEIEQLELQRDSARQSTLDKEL
T3 sequence (looked up) 2: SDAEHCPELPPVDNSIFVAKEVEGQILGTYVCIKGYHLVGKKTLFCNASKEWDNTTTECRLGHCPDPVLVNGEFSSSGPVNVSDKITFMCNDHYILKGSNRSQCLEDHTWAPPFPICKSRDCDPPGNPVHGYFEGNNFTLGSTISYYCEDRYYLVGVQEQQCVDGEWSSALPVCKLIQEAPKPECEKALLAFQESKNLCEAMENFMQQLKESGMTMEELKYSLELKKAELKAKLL
Nature of the test: competition, equilibrium binding in microtiter wells: peptide against a trace of 125I-labelled human protein S on immobilised C4BP, TBS with 10 mM EDTA, 4 °C overnight, gamma counting. On the procedure:
(§2) Microtiter plates were coated with C4BP, 50 μl/well, 10 μg/ml in 0.075 M sodium carbonate buffer, pH 9.6. The plates were incubated over night at 4° C. and then washed with TBS, pH 7.5, containing 0.1% Tween 20. […] The wells were then washed and the amount of bound protein S detected using a γ-counter.
as §1, with “(◊)” for “(⋄)”, “(▼)” for “(▾)”, “(▽)” for “(∇)”, “$Smax$,” for “Smax,”, “$X=(S-0.04)/0.96\ Smax$.” for “X=(S−0.04)/0.96 Smax.”

In test [4] the target is T3, C4b-binding protein (C4BP), species …. Description: SPR (BIAcore) competition: 50 nM human protein S mixed with peptide, flowed over immobilised C4BP (8000 RU), HC buffer; percent protein S bound calculated from the response. On the procedure: The surface plasmon resonance studies were performed using a BIAcore™ apparatus from Pharmacia Biosensor AB. Immobilization of C4BP to the dextran coated gold surface of a sensorchip was performed at a flow rate of 5 μl/min, using HC as flow buffer. Equal volumes of 0.1 M NHS and 0.1 M EDC were first mixed, whereafter 30 μl of the mixture was flown over the sensorchip surface to activate the carboxymethylated dextran. C4BP was then injected over the sensorchip (40 μl of a 60 μg/ml solution in 10 mM NaOAc at pH 4.75), whereafter unreacted NHS-ester groups were blocked by 15 μl 1M ethanolamine (pH 8.5). […] Protein S association was monitored with 50 nM human protein S in HC buffer in a continuous flow of 1 μl per minute during 45 minutes. […] The percent protein S bound, X, was calculated as $$X=(S-0.04Smax)/0.96Smax$$
In these figures, peptide inhibition of the protein S-C4BP interaction is shown as the amount of protein S bound (relative to the amount bound in the absence of peptide) versus concentration of the nine peptides listed in Table 1: (o) SL1, (♦) SL2, (□) SL3, (+) SL4, (◊) SL5, (●) SL6, (▼) SL7, (Δ) BD4 & (▽) BD6. […] The amount of protein S bound, X, was calculated from the observed signal intensity, S, compared to the maximum signal intensity in the absence of peptide $Smax$, as $X=(S-0.04)/0.96\ Smax$.

Test [5] shares this target. Description: unlabelled protein S competing with 125I-protein S tracer for immobilised C4BP in microtiter wells, EDTA buffer. On the procedure: as §2
as §1, with “(◊)” for “(⋄)”, “(▼)” for “(▾)”, “(▽)” for “(∇)”, “$Smax$,” for “Smax,”, “$X=(S-0.04)/0.96\ Smax$.” for “X=(S−0.04)/0.96 Smax.”

For the molecule “plasma purified human protein S: plasma purified human protein S, unlabelled competitor of radiolabelled protein S”, in test [1], the Kd is 0.0065 µM.

Regarding DKAMKAKVATYLGGLPDVPFSAT [SL4], the “effect on binding of human protein S to C4BP (SPR response)” value in test [2] is given as “the same response was observed as with protein S alone”. Regarding SDQQSHLEFRVNNLEKSTPLK [SL3], the “effect on binding of human protein S to C4BP (SPR response)” value in test [2] was “the same response was observed as with protein S alone”. EKGSYYPGSGIAQFHIDYNNVS [SL2 synthetic peptide (protein S residues 439-460)]: the “IC50 (read off the curve)” value was approximately 200 µM in test [3] and approximately 40 µM in test [4]. Turning to SGIAQFHIDYNNVSSAEGWHVN [SL6 synthetic peptide (protein S residues 447-468)], the “IC50 (read off the curve)” value in test [4] was approximately 30 µM.

B1: plasma purified human protein S (other, UniProt P07225 42-676, looked up)
chain: ANSLLEETKQGNLERECIEELCNKEEAREVFENDPETDYFYPKYLVCLRSFQTGLFTAARQSTNAYPDLRSCVNAIPDQCSPLPCNEDGYMSCKDGKASFTCTCKPGWQGEKCEFDINECKDPSNINGGCSQICDNTPGSYHCSCKNGFVMLSNKKDCKDVDECSLKPSICGTAVCKNIPGDFECECPEGYRYNLKSKSCEDIDECSENMCAQLCVNYPGGYTCYCDGKKGFKLAQDQKSCEVVSVCLPLNLDTKYELLYLAEQFAGVVLYLKFRLPEISRFSAEFDFRTYDSEGVILYAESIDHSAWLLIALRGGKIEVQLKNEHTSKITTGGDVINNGLWNMVSVEELEHSISIKIAKEAVMDINKPGPLFKPENGLLETKVYFAGFPRKVESELIKPINPRLDGCIRSWNLMKQGASGIKEIIQEKQNKHCLVTVEKGSYYPGSGIAQFHIDYNNVSSAEGWHVNVTLNIRPSTGTGVMLALVSGNNTVPFAVSLVDSTSEKSQDILLSVENTVIYRIQALSLCSDQQSHLEFRVNRNNLELSTPLKIETISHEDLQRQLAVLDKAMKAKVATYLGGLPDVPFSATPVNAFYNGCMEVNINGVQLDLDEAISKHNDIRAHSCPSVWKKTKNS
modifications: 125I-labelled where used as tracer in the microtiter equilibrium assay
notes: mature; also called PS; free protein S
In test [5], B1 came in with a half-inhibitory concentration (IC50) of approximately 2 µM. With LVTVEKGSYYPGSGIAQFHIDYNNVSSAEGWHVN [SL7 synthetic peptide (protein S residues 435-468)], the “IC50 (read off the curve)” value in test [3] is approximately 90 µM.

One may read the Kd as the constant that tells how readily two partners part at equilibrium. By IC50 is commonly meant the midpoint of a concentration-inhibition curve. Read a high IC50 as a need for much substance.
